Measured values: publication PMC9436932 (Scientific Reports, 2022)

Biological target: the molecule itself
Assay: SEC

B1: TatB^22–171 (soluble membrane-extrinsic cytoplasmic domain of E. coli TatB, transmembrane helix residues 1–21 deleted) (domain or fragment, UniProt P69425 22-171, looked up)
chain: PQRLPVAVKTVAGWIRALRSLATTVQNELTQELKLQEFQDSLKKVEKASLTNLTPELKASMDELRQAAESMKRSYVANDPEKASDEAHTIHNPVVKDNEAAHEGVTPAAAQTQASSPEQKPETTPEPVVKPAADAEPKTAAPSPSSSDKP
notes: also called membrane-extrinsic domain of TatB; soluble TatB
binding result: binds
